Consider nine molecules from patent US20150197564A1 (Regeneron, published 2015).

To fix the notation:
B3: hANGPTL3(17-460)-His (other)
chain: SRIDQDNSSFDSLSPEPKSRFAMLDDVKILANGLLQLGHGLKDFVHKTKGQINDIFQKLNIFDQSFYDLSLQTSEIKEEEKELRRTTYKLQVKNEEVKNMSLELNSKLESLLEEKILLQQKVKYLEEQLTNLIQNQPETPEHPEVTSLKTFVEKQDNSIKDLLQTVEDQYKQLNQQHSQIKEIENQLRRTSIQEPTEISLSSKPRAPRTTPFLQLNEIRNVKHDGIPAECTTIYNRGEHTSGMYAIRPSNSQVFHVYCDVISGSPWTLIQHRIDGSQNFNETWENYKYGFGRLDGEFWLGLEKIYSIVKQSNYVLRIELEDWKDNKHYIEYSFYLGNHETNYTLHLVAITGNVPNAIPENKDLVFSTWDHKAKGHFNCPEGYSGGWWWHDECGENNLNGKYNKPRAKSKPERRRGLSWKSQNGRLYSIKSTKMLIHPTDSESFEHHHHHHHHHH

Assay [1] concerns the target B3. As to the kind of experiment: SPR Biacore, antigen captured, 25C, pH 7.4, HBS-EP. As to the method:
(§1) All kinetic binding experiments were performed at 25° C. or 37° C. on a BIACORE™ T200 label-free molecular interaction instrument (GE Healthcare) using a CM5 sensor chip. Briefly, an antigen capture surface was generated by covalently coupling either an anti-mouse IgG-specific antibody (anti-mFc; GE Healthcare; catalog #BR-1008-38) or an anti-pentahistidine-specific antibody (Qiagen; catalog #34660) to the surface of a CM5 sensor chip using a standard amine coupling method.

For another assay, the target named is T1, hANGPTL3(17-169)-mFc (human).
T1 construct: also called N-terminal coiled-coil domain of hANGPTL3 with a C-terminal mouse Fc fusion
T1 chain: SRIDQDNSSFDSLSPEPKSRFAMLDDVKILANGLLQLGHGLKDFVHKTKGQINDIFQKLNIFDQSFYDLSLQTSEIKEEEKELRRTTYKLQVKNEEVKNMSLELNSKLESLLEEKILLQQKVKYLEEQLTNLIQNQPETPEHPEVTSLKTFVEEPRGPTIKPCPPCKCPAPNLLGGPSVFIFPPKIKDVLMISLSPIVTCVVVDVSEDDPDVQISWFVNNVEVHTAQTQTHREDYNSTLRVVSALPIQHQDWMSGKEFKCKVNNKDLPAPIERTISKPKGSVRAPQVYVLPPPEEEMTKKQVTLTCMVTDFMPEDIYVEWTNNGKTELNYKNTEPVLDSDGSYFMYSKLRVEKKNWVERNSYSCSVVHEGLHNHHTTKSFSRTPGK
As to the kind of experiment: SPR Biacore, antigen captured, 25C, pH 7.4, HBS-EP. As to the method: as §1
(In general: Surface plasmon resonance follows binding to a sensor surface in real time, without labels.)

Assay [2] has as its target B3. Description: SPR Biacore, antigen captured, 37C, pH 7.4, HBS-EP. As to the method:
as §1

The next assay addresses T2, mANGPTL3(17-455)-His (Mus musculus, UniProt Q9R182 17-455).
T2 construct: Bought protein (R&D Systems); also called full-length mature ANGPTL3 from Mus musculus with a C-terminal decahistidine tag
T2 sequence: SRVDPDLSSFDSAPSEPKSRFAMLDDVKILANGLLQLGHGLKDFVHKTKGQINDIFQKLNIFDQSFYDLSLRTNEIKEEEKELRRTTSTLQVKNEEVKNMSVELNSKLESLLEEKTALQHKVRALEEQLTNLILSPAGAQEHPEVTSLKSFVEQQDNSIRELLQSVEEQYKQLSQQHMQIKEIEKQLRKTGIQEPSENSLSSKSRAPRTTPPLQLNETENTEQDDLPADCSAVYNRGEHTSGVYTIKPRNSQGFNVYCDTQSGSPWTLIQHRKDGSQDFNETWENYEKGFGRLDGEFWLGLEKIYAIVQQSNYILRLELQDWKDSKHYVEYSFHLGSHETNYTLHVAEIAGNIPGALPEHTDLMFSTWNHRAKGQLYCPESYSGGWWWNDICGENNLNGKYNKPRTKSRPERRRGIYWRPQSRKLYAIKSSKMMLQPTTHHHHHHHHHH
Description: SPR Biacore, antigen captured, 37C, pH 7.4, HBS-EP. As to the method: as §1

In a further assay the target is T3, bovine LPL (bovine, UniProt P11151 29-478, limits assumed).
T3 sequence (looked up): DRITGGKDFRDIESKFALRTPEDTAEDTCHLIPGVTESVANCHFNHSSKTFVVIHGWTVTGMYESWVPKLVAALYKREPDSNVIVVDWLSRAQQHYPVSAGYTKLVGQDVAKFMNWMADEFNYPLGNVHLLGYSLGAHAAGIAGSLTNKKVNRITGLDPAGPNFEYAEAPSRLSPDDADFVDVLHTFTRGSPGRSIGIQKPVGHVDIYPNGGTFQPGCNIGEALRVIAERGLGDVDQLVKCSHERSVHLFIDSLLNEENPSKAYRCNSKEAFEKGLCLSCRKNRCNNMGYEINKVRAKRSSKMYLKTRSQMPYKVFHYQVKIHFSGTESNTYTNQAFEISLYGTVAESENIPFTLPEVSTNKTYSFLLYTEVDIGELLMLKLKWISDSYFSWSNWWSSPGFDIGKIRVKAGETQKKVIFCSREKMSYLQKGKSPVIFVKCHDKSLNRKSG
Description: cell-based or functional assay.

B1: H4H1248P (antibody, IgG4, V domains shown)
VH: QVQLVESGGGVVQPGRSLRLSCAASGFTFSSYGMHWVRQAPGKGLEWVAVISYDGSNKYYADSVKGRFTISRDNSKNTLYLQMNSLRAEDTAVYYCAKVGATTFYYYYGMDVWGQGTTVTVSS
VL: DIQMTQSPSSVSAFVGDRVTITCRASQGISSWLAWYQQKPGKAPKLLIYAASSLQSGVPSRFSGSGSGTDFTLTISSLQPEDFATYYCQKANSFPFTFGPGTKVEIK
By Kd is commonly meant the free concentration of one partner at which half of the binding sites on the other are occupied at equilibrium, for simple one-to-one binding. As usually defined, the koff is the rate constant with which the complex falls apart. A higher koff goes with a short-lived complex. By kon is commonly meant a measure of how fast the partners come together. For B1, in the assay with hANGPTL3(17-460)-His [1], the equilibrium dissociation constant (Kd) worked out at 5.62 nM, the koff was 0.00247 s⁻¹, the kon turned out to be 440000 M⁻¹ s⁻¹ and the t1/2 amounted to 5 min. In the assay with hANGPTL3(17-169)-mFc, binding was characterised by a dissociation constant (Kd) of 5.95 nM, the off-rate constant (koff) is 0.00272 s⁻¹, the kon is 457000 M⁻¹ s⁻¹ and the t1/2 turned out to be 4 min. In addition, in the assay with hANGPTL3(17-460)-His [2], the Kd is 0.986 nM, the koff came out at 0.00193 s⁻¹, the kon was determined as 1.96e+06 M⁻¹ s⁻¹ and the t1/2 came out at 6 min. Besides, in the assay with mANGPTL3(17-455)-His, the binding result is given as “no binding”.

B2: H4H1263S (antibody, IgG4, V domains shown)
VH: QVQLVQSGGGVVQPGRSLRLSCAASGFTFSTYGMHWVRQAPGKGLEWMAVISFDRGNKYYADSVKGRFTISRDNSKNTLYLQMNSLRAEDTAVYYCAKGGGSGTFYYYYGMDVWGQGTTVTVSS
VL: DIQMTQSPSSVSASVGNRVTITCRASQGISSWLAWYHQKPGKVPKVLIYAASSLQSGVPSRFSGSGSGTDFTLTISSLQPEDFATYYCQQANSFPFTFGPGTKVEIKR
Turning to B2, in the assay with hANGPTL3(17-460)-His [1], the Kd came to 2.47 nM, the dissociation rate constant (koff) was 0.00126 s⁻¹, the kon is 508000 M⁻¹ s⁻¹ and the t1/2 turned out to be 9 min. Moreover, in the assay with hANGPTL3(17-169)-mFc, the Kd is 6.23 nM, the koff came to 0.00422 s⁻¹, the kon was 677000 M⁻¹ s⁻¹ and the t1/2 worked out at 3 min. Further, in the assay with hANGPTL3(17-460)-His [2], binding was characterised by a dissociation constant (Kd) of 0.381 nM, the koff stood at 0.00181 s⁻¹, the association rate constant (kon) amounted to 4.74e+06 M⁻¹ s⁻¹ and the t1/2 is 6 min. In the assay with mANGPTL3(17-455)-His, the binding result is “no binding”.

As to B3, the “EC50 (nM), inhibition of LPL activity” value with bovine LPL stood at 50 nM.

B4: H4H1295P (antibody, V domains shown)
VH: QVQLVQSGPEVKKPGASVRVSCKASGYLSDFIITWVRQAPGQGLEWMGWISTYSGDTDSAPKFQGRVTMTTDTSTTTVFLELRSLRSDDTAVYYCARGRLFDYWGQGTLVTVSS
VL: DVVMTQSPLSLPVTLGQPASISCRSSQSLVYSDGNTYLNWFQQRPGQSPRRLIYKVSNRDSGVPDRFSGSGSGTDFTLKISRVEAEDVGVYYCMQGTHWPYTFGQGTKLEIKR
In the assay with hANGPTL3(17-460)-His [1], B4 displayed a Kd of 0.197 nM, a koff of 7.35e-05 s⁻¹, a kon of 373000 M⁻¹ s⁻¹ and a t1/2 of 157 min. In the assay with hANGPTL3(17-169)-mFc, this molecule came in with a Kd of 0.226 nM, a koff of 7.95e-05 s⁻¹, a kon of 352000 M⁻¹ s⁻¹ and a t1/2 of 145 min.

B5: MfANGPTL3(17-170)-mmH (other)
chain: SRIDQDNSSFDSVSPEPKSRFAMLDDVKILANGLLQLGHGLKDFVHKTKGQINDIFQKLNIFDQSFYDLSLQTSEIKEEEKELRRTTYKLQVKNEEVKNMSLELNSKLESLLEEKILLQQKVKYLEEQLTNLIQNQPATPEHPEVTSLKSFVEKEQKLISEEDLGGEQKLISEEDLHHHHHH
B5: in the assay with bovine LPL, the “EC50 (nM), inhibition of LPL activity” value was 625 nM.

B6: H4H1282P (antibody, IgG4, V domains shown)
VH: EVQLVQSGGGVVQPGRSLRLSCAASGFTFSNYGMHWVRQAPGKGLEWVAVVWYDGDNKYYADSVKGRFTISRDNSKNTLYLQMNSLRAEDTAVYYCARDIITSRPTLDYWGQGTLVTVSS
VL: DIQLTQSPSFLSASVGDRVTITCWASQGINSYLAWYQQKPGKAPKLLIYPASTLQSGVPSRFSGSGSGTEFTLTISSLQPVDFATYYCQQLNSYPLTFGGGTKVEIKR
Regarding B6, in the assay with hANGPTL3(17-460)-His [1], the dissociation constant (Kd) worked out at 0.0968 nM, the koff amounted to 9.26e-05 s⁻¹, the kon was found to be 957000 M⁻¹ s⁻¹ and the t1/2 turned out to be 125 min. Further, in the assay with hANGPTL3(17-169)-mFc, the Kd stood at 0.0463 nM, the koff worked out at 5.92e-05 s⁻¹, the kon was 1.28e+06 M⁻¹ s⁻¹ and the t1/2 came out at 195 min.

B7: H4H1296P (antibody, IgG4, V domains shown)
VH: QVQLVESGGVSVKPGGSLRLSCAASGFTFSDYYMSWIRQAPGKGLEWVSYIGSSGTNDYYADSVKGRFTISRDNAKNSLYLQMDSLRAEDTAVYYCARDSSQMGFDYWGQGTLVTVSS
VL: DIQMTQSPSSLSASVGDRVTITCRASQNIINFLNWYQQRPGKAPQLLIYVAASLQSGVPSRFTGSGYGTDFTLTISSLQPEDFATYYCQQTYTNPLTFGGGTKVEIKR
In the assay with hANGPTL3(17-460)-His [1], B7 yielded a Kd of 0.137 nM, a koff of 4.12e-05 s⁻¹, a kon of 301000 M⁻¹ s⁻¹ and a t1/2 of 280 min. In the assay with hANGPTL3(17-169)-mFc, this molecule displayed a Kd of 0.0611 nM, a koff of 3.92e-05 s⁻¹, a kon of 641000 M⁻¹ s⁻¹ and a t1/2 of 295 min.

B8: hANGPTL3(17-170)-His (other)
chain: SRIDQDNSSFDSLSPEPKSRFAMLDDVKILANGLLQLGHGLKDFVHKTKGQINDIFQKLNIFDQSFYDLSLQTSEIKEEEKELRRTTYKLQVKNEEVKNMSLELNSKLESLLEEKILLQQKVKYLEEQLTNLIQNQPETPEHPEVTSLKTFVEKHHHHHH
On to B8, for which, in the assay with bovine LPL, the “EC50 (nM), inhibition of LPL activity” value was determined as 91 nM.

B9: H4H1268S (antibody, IgG4, V domains shown)
VH: QVQLQQSGPGLVKPSQTLSLTCAISGDSVSSNSPAWNWIRQSPSRGLEWLGRTYYRSKWYNDYAVSVRGRITINPDTSNNQFSLHLNSVTPEDTAMYYCARDKGLTARPTYFDYWGQGTLVTVSS
VL: DIQMTQSPSTLSASVGDRVTITCRASQSINYWLAWYQQKPGKAPKPLIYKASSLESGVPSRFSGSGSGTEFTLTISSLQPDDFTTYYCQQYNSYSPTFGQGTKLEIKR
B9: in the assay with hANGPTL3(17-460)-His [1], the Kd worked out at 1.47 nM, the koff stood at 0.00189 s⁻¹, the kon was 1.29e+06 M⁻¹ s⁻¹ and the t1/2 stood at 6 min. In the assay with hANGPTL3(17-169)-mFc, the Kd came to 0.721 nM, the koff came to 0.000835 s⁻¹, the kon came out at 1.16e+06 M⁻¹ s⁻¹ and the t1/2 was determined as 14 min.
